Measured values from PMC4417367.

Target: EGFP-GR C683A, L687-690A (rat) (UniProt P06536)
Experiment: co-IP

percent decrease of the HSP90/GR ratio against wild type EGFP-GR: 62.7%
Substance: heat shock protein 90 (natural protein)
